Measurements from publication PMC5603418 (The FEBS journal, 2017).

What was measured:
[1] = biological target: Desulfovibrio vulgaris proline utilization A (Desulfovibrio vulgaris str. Hildenborough); test: SAXS
[2] = biological target: T1, Bdellovibrio bacteriovorus proline utilization A (BbPutA) (Bdellovibrio bacteriovorus, UniProt Q6MNK1); test: X-ray crystal structure, […] Å, of the covalently inactivated enzyme; assay type: binding
T1 sequence (Q6MNK1 1-982): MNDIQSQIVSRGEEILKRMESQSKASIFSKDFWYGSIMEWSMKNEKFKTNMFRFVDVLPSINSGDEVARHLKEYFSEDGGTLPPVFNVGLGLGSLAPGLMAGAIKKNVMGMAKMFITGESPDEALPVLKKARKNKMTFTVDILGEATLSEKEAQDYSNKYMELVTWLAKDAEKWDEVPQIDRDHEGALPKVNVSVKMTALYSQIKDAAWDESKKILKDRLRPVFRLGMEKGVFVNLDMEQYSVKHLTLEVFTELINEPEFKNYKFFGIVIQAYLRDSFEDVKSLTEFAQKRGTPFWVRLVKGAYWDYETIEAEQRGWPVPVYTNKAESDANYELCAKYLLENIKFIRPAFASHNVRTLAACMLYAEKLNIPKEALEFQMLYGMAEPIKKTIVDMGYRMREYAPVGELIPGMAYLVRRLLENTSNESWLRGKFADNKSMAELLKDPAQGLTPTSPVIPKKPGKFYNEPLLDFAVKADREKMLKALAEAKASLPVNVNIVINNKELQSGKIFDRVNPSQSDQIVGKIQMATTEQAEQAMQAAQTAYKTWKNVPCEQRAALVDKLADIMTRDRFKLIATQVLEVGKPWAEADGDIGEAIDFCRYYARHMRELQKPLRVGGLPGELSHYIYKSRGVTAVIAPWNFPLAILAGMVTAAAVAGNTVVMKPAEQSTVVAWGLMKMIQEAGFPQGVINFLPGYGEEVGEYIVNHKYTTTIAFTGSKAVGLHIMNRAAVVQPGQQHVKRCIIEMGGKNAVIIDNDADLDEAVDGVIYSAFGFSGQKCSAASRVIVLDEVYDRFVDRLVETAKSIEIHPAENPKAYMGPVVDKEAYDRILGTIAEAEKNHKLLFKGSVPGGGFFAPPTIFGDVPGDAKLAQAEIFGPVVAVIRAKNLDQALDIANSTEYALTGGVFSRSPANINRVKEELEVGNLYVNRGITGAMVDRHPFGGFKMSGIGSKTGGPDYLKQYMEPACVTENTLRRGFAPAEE

[3] = biological target: the molecule itself; test: AUC
[4] = biological target: the molecule itself; test: SAXS
[5] = biological target: the molecule itself; test: AUC; remark: listed apart in the source

Desulfovibrio vulgaris proline utilization A (enzyme)
stoichiometry N [1]: 2

C#CCNCC(=O)O [compound 1, N-propargylglycine]
X-ray crystal structure, 2.2 Å, of the covalently inactivated enzyme [2]: 3-carbon link between Lys196 and the N5 of the FAD consistent with the presence of a covalent NPPG modification

B1: Bradyrhizobium japonicum proline utilization A (enzyme, UniProt Q89E26 1-999, looked up)
chain: MPNIPPPFTAPYAPDDAEIAARLLPASHLSPPQEARIHRTATRLIEAIRKRDDRLGGVEDMLREFALSTKEGLALMVLAEALLRVPDARTADQFIEDKLGEGDFIHHETKSTAFLVNASAWALGLSARVIQPGETPDGTIGRLVKRLGAPAVRTATRQAMRLMGNHFVLGETIEQALERGKPRSGQKTRYSFDMLGEGARTAADARRYFDAYASAIETIGKAAGNHALPDRPGISVKLSALHPRFEAISRARVMVELVPQLLDLAQRAKAHDLNFTVDAEEADRLELSLDVIAATLADPSLKGWDGFGLAIQAYQKRASAVIDYVDALARAHDRKLMVRLVKGAYWDTEIKRAQERGLDGYPVFTRKAMTDLNYVACASKLLALRPRIFPQFATHNALTVATVLEMAEGSSGFEFQRLHGMGEALYEQLAKDHADIAYRTYAPVGSHRDLLAYLVRRLLENGANSSFVAQAADYRVPVPALLQRPADAIVRPQAAAHPRIPLPCDLFAPERRNSRGVEFGARTALDQLLTDVKAETGDLKPIADATPDQAHAAVAAARAGFAGWSRTPAGIRAAALEQAAHLLESRSAHFIALLQREGGKTLDDALSELREAADFCRYYAAQGRKLFGSETAMPGPTGESNALTMRGRGVFVAISPWNFPLAIFLGQVTAALMAGNSVVAKPAEQTPRIAREAVALLHEAGIPKSALYLVTGDGRIGAALTAHPDIAGVVFTGSTEVARSINRALAAKDGPIVPLIAETGGINAMIADATALPEQVADDVVTSAFRSAGQRCSALRLLFVQEDVADRMIEMVAGAARELKIGDPSDVATHVGPVIDVEAKQRLDAHIARMKTEARLHFAGPAPEGCFVAPHIFELTEAGQLTEEVFGPILHVVRYRPENLERVLRAIERTGYGLTLGVHSRIDDSIEAIIDRVQVGNIYVNRNMIGAVVGVQPFGGNGLSGTGPKAGGPHYLARFATEQTVTINTAAAGGNAALLAGEE
stoichiometry N [3]: 4

B2: Bdellovibrio bacteriovorus proline utilization A (enzyme, Bdellovibrio bacteriovorus HD100, UniProt Q6MNK1 1-982, looked up)
chain: T1 sequence (Q6MNK1 1-982)
stoichiometry N [4]: 2

B3: Bdellovibrio bacteriovorus proline utilization A inactivated by N-propargylglycine (enzyme, Bdellovibrio bacteriovorus HD100, UniProt Q6MNK1 1-982, looked up)
chain: T1 sequence (Q6MNK1 1-982)
modifications: Lys196 covalently linked to the N5 atom of the FAD by a 3-carbon link (inactivation by N-propargylglycine)
stoichiometry N [5]: 2
